According to patent US20140271458A1 (AbbVie / Abbott, published 2014):

Key:
Recombinant Human IL-17 [1] = biological target: T1, Recombinant Human IL-17 (human, UniProt Q16552 20-155, limits assumed); experiment: cell-based or functional assay
T1 sequence (looked up): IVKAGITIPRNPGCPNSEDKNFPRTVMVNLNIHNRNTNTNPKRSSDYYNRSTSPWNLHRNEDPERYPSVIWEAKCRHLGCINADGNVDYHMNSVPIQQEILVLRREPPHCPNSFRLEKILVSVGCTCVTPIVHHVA

Recombinant Human IL-17 [2] = biological target: T1, Recombinant Human IL-17; experiment: SPR, Biacore T200, antibody captured, antigen 0.8-100 nM, 25 C
Protocol: (§1) The BIACORE assay (GE, Healthcare Piscataway, N.J.) determined the affinity of antibodies or DVD-Ig proteins with kinetic measurements of on-rate and off-rate constants. Binding of antibodies or DVD-Ig proteins to a target antigen (for example, a purified recombinant target antigen) was determined by surface plasmon resonance-based measurements with a Biacore T200 using running HBS-EP+buffer from GE Healthcare at 25° C. AN chemicals were obtained from GE Healthcare unless otherwise described. For example, approximately 5000 RU of goat anti-mouse IgG, (Fcγ), fragment specific polyclonal antibody (Pierce Biotechnology Inc, Rockford, Ill.) diluted in 10 mM sodium acetate (pH 4.5) was directly immobilized across a CM5 research grade biosensor chip using a standard amine coupling kit according to manufacturer's instructions. Unreacted moieties on the biosensor surface were blocked with ethanolamine. Modified carboxymethyl dextran surface in flowcell 1 was used as a reference surface. Rate constants were derived by making kinetic binding measurements at different antigen concentrations ranging from 0.8-100 nM. Binding was recorded as a function of time and kinetic rate constants were calculated. In this assay, association rate was evaluated for 5 minutes and dissociation was monitored for 10 minutes. For kinetic screening analysis, rate equations derived from the 1:1 binding model were fitted simultaneously to association and dissociation phases of all injections (using global fit analysis with Rmax fit locally to account for capture variations) with the use of Biaevaluation software. Purified antibodies or DVD-Ig proteins were diluted in HEPES-buffered saline for capture across goat anti-mouse IgG specific reaction surfaces. Antibodies or DVD-Ig proteins to be captured as a ligand were injected over reaction matrices at a flow rate of 5 μl/minute. The association and dissociation rate constants, kₒₙ (M⁻¹s⁻¹) and koff (s⁻¹) were determined under a continuous flow rate of 50 μl/minute. Rate constants were derived by making kinetic binding measurements at different antigen concentrations ranging from 0.8-100 nM. Binding was recorded as a function of time and kinetic rate constants were calculated. In this assay, association rate was evaluated for 5 minutes and dissociation was monitored for 10 minutes.

Recombinant Human IL-1b [3] = biological target: T2, Recombinant Human IL-1b (human, UniProt P01584 117-269); experiment: cell-based or functional assay
Recombinant Human IL-1b [4] = biological target: T2, Recombinant Human IL-1b; experiment: SPR, Biacore T200, antibody captured, antigen 0.8-100 nM, 25 C
Protocol: as §1

Recombinant Human IL-1b [5] = biological target: T2, Recombinant Human IL-1b; experiment: SPR, Biacore T200, DVD-Ig captured, antigen 0.8-100 nM, 25 C
Protocol: as §1

Recombinant Human IL-17 [6] = biological target: T1, Recombinant Human IL-17; experiment: as above
Protocol: as §1

B1: AB420 (antibody, V domains shown)
VH: EVQLVQSGAEVKKPGSSVKVSCKASGGSFGGYGIGWVRQAPGQGLEWMGGITPFFGFADYAQKFQGRVTITADESTTTAYMELSGLTSDDTAVYYCARDPNEFWGGYYSTHDFDSWGQGTTVTVSS
VL: EIVLTQSPDFQSVTPKEKVTITCRASQDIGSELHWYQQKPDQPPKLLIKYASHSTSGVPSRFSGSGSGTDFTLTINGLEAEDAGTYYCHQTDSLPYTFGPGTKVDIKR
C-Terminal VD IL17 Neutralization Assay (IC50 nM) (Recombinant Human IL-17 [1]): 0.048 nM

B2: AB461 (antibody, V domains shown)
VH: EVQLVQSGAEVKKPGESVKISCKASGGSFRSYGISWVRQAPGQGLEWMGGITHFFGITDYAQKFQGRVTITADESTTTAYMELSGLTSDDTAVYYCAREPNDFWGGYYDTHDFDSWGQGTTVTVSS
VL: EIVLTQSPDFQSVTPKEKVTITCRASQNIGSELHWYQQKPDQSPKLLIKYASHSISGVPSRFSGSGSGTDFTLTINGLEAEDAATYYCHQSDTLPHTFGQGTKVDIKR
notes: Parent anti-IL-17 antibody; also called AB461VH
Kd (Recombinant Human IL-17 [2]): 0.00086 nM
koff (Recombinant Human IL-17 [2]): 5.3e-06 s⁻¹
kon (Recombinant Human IL-17 [2]): 6.2e+06 M⁻¹ s⁻¹

B3: AB270 (antibody, V domains shown)
VH: EVQLQESGPGLVKPSETLSLTCTVSGFSLSDYGVSWIRQPPGKGLEWLGLIWGGGDTYYNSPLKSRLTISKDNSKSQVSLKLSSVTAADTAVYYCAKQRTLWGYDLYGMDYWGQGTLVTVSS
VL: DTQVTQSPSSLSASVGDRVTITCITSTDIDVDMNWYQQKPGKPPKLLISQGNTLRPGVPSRFSSSGSGTDFTFTISSLQPEDFATYYCLQSDNLPLTFGQGTKLEIKR
notes: Parent anti-IL-1β antibody; also called AB270VH
N-Terminal VD IL-1β Neutralization Assay (IC50 nM) (Recombinant Human IL-1b [3]): 0.239 nM
Kd (Recombinant Human IL-1b [4]): 0.08 nM
koff (Recombinant Human IL-1b [4]): 0.00053 s⁻¹
kon (Recombinant Human IL-1b [4]): 6.6e+06 M⁻¹ s⁻¹

B4: AB271 (antibody, V domains shown)
VH: EVQLQESGPGLVKPSETLSLTCTVSGFSLSDYGVSWIRQPPGKGLEWLGLIWGGGDTYYNSPLKSRLTISKDNSKSQVSLKLSSVTAADTAVYYCAKQRTLWGYDLYGMDYWGQGTLVTVSS
VL: DTVVTQSPAFLSVTPGEKVTITCITSTDIDVDMNWYQQKPDQPPKLLISQGNTLRPGVPSRFSSSGSGTDFTFTISSLEAEDAATYYCLQSDNLPLTFGQGTKLEIKR
notes: Parent anti-IL-1β antibody; also called AB271VH
N-Terminal VD IL-1β Neutralization Assay (IC50 nM) (Recombinant Human IL-1b [3]): 0.301 nM
Kd (Recombinant Human IL-1b [4]): 0.11 nM
koff (Recombinant Human IL-1b [4]): 0.00051 s⁻¹
kon (Recombinant Human IL-1b [4]): 4.6e+06 M⁻¹ s⁻¹

B5: AB272 (antibody, V domains shown)
VH: EVQLVESGGGLVQPGGSLRLSCAVSGFTLSDYGVSWIRQAPGKGLEWLGLIWGGGDTYYNSPLKSRLTISKDNSKSTVYLQMNSLRAEDTAVYYCAKQRTLWGYDLYGMDYWGQGTLVTVSS
VL: ETTVTQSPSSLSASVGDRVTITCITSTDIDVDMNWYQQKPGKPPKLLISQGNTLRPGVPSRFSSSGSGTDFTFTISSLQPEDFATYYCLQSDNLPLTFGQGTKLEIKR
notes: Parent anti-IL-1β antibody; also called AB272VH
N-Terminal VD IL-1β Neutralization Assay (IC50 nM) (Recombinant Human IL-1b [3]): 0.424 nM
Kd (Recombinant Human IL-1b [4]): 0.14 nM
koff (Recombinant Human IL-1b [4]): 0.00056 s⁻¹
kon (Recombinant Human IL-1b [4]): 4e+06 M⁻¹ s⁻¹

B6: AB273 (antibody, V domains shown)
VH: EVQLVQSGAEVKKPGSSVKVSCKASGYTFTDYEIHWVRQAPGQGLEWMGVNDPESGGTFYNQKFDGRVTLTADESTSTAYMELSSLRSEDTAVYYCTRYSKWDSFDGMDYWGQGTTVTVSS
VL: DIQMTQSPSSLSASVGDRVTITCRASSGIISYIDWFQQKPGKAPKRLIYATFDLASGVPSRFSGSGSGTDYTLTISSLQPEDFATYYCRQVGSYPETFGQGTKLEIKR
notes: Parent anti-IL-17 antibody; also called AB273VH
C-Terminal VD IL17 Neutralization Assay (IC50 nM) (Recombinant Human IL-17 [1]): 0.031 nM
Kd (Recombinant Human IL-17 [2]): 0.0046 nM
koff (Recombinant Human IL-17 [2]): 1.3e-05 s⁻¹
kon (Recombinant Human IL-17 [2]): 2.7e+06 M⁻¹ s⁻¹

B7: DVD3415 (bispecific antibody, human IgG1)
heavy: EVQLVESGGGVVQPGRSLRLSCSASGFIFSRYDMSWVRQAPGKGLEWVAYISHGGAGTYYPDSVKGRFTISRDNSKNTLFLQMDSLRPEDTGVYFCARGGVTKGYFDVWGQGTPVTVSSGGGGSGGGGSEVQLVQSGAEVKKPGSSVKVSCKASGGSFGGYGIGWVRQAPGQGLEWMGGITPFFGFADYAQKFQGRVTITADESTTTAYMELSGLTSDDTAVYYCARDPNEFWGGYYSTHDFDSWGQGTTVTVSSASTKGPSVFPLAPSSKSTSGGTAALGCLVKDYFPEPVTVSWNSGALTSGVHTFPAVLQSSGLYSLSSVVTVPSSSLGTQTYICNVNHKPSNTKVDKKVEPKSCDKTHTCPPCPAPEAAGGPSVFLPPPKPKDTLMISRTPEVTCVVVDVSHEDPEVKFNWYVDGVEVHNAKTKPREEQYNSTYRVVSVLTVLHQDWLNGKEYKCKVSNKALPAPIEKTISKAKGQPREPQVYTLPPSREEMTKNQVSLTCLVKGFYPSDIAVEWESNGQPENNYKTTPPVLDSDGSFFLYSKLTVDKSRWQQGNVFSCSVMHEALHNHYTQKSLSLSPGK
light: DIQMTQSPSSLSASVGDRVTITCRASGNIHNYLTWYQQTPGKAPKLLIYNAKTLADGVPSRFSGSGSGTDYTFTISSLQPEDIATYYCQHFWSIPYTFGQGTKLQITRGGSGGGGSGEIVLTQSPDFQSVTPKEKVTITCRASQDIGSELHWYQQKPDQPPKLLIKYASHSTSGVPSRFSGSGSGTDFTLTINGLEAEDAGTYYCHQTDSLPYTFGPGTKVDIKRTVAAPSVFIFPPSDEQLKSGTASVVCLLNNFYPREAKVQWKVDNALQSGNSQESVTEQDSKDSTYSLSSTLTLSKADYEKHKVYACEVTHQGLSSPVTKSFNRGEC
notes: human kappa; also called DVD3415H; DVD3415L
N-Terminal VD IL-1β Neutralization Assay (IC50 nM) (Recombinant Human IL-1b [3]): 0.027 nM
C-Terminal VD IL17 Neutralization Assay (IC50 nM) (Recombinant Human IL-17 [1]): 0.091 nM
Kd (Recombinant Human IL-1b [5]): 0.051 nM
koff (Recombinant Human IL-1b [5]): 3.8e-05 s⁻¹
kon (Recombinant Human IL-1b [5]): 740000 M⁻¹ s⁻¹
Kd (Recombinant Human IL-17 [6]): < 0.0048 nM
koff (Recombinant Human IL-17 [6]): < 1e-06 s⁻¹
kon (Recombinant Human IL-17 [6]): 210000 M⁻¹ s⁻¹

B8: DVD3418 (bispecific antibody, human IgG1)
heavy: EVQLVESGGGVVQPGRSLRLSCSASGFIFSRYDMSWVRQAPGKGLEWVAYISHGGAGTYYPDSVKGRFTISRDNSKNTLFLQMDSLRAEDTAVYYCARGGVYKGYFDVWGQGTPVTVSSGGGGSGGGGSEVQLVQSGAEVKKPGSSVKVSCKASGGSFGGYGIGWVRQAPGQGLEWMGGITPFFGFADYAQKFQGRVTITADESTTTAYMELSGLTSDDTAVYYCARDPNEFWGGYYSTHDFDSWGQGTTVTVSSASTKGPSVFPLAPSSKSTSGGTAALGCLVKDYFPEPVTVSWNSGALTSGVHTFPAVLQSSGLYSLSSVVTVPSSSLGTQTYICNVNHKPSNTKVDKKVEPKSCDKTHTCPPCPAPEAAGGPSVFLPPPKPKDTLMISRTPEVTCVVVDVSHEDPEVKFNWYVDGVEVHNAKTKPREEQYNSTYRVVSVLTVLHQDWLNGKEYKCKVSNKALPAPIEKTISKAKGQPREPQVYTLPPSREEMTKNQVSLTCLVKGFYPSDIAVEWESNGQPENNYKTTPPVLDSDGSFFLYSKLTVDKSRWQQGNVFSCSVMHEALHNHYTQKSLSLSPGK
light: DIQMTQSPSSLSASVGDRVTITCRASGNIHNYLTWYQQTPGKAPKLLIYNAKTLADGVPSRFSGSGSGTDYTFTISSLQPEDIATYYCQHFWSIPYTFGQGTKLQITRGGSGGGGSGEIVLTQSPDFQSVTPKEKVTITCRASQDIGSELHWYQQKPDQPPKLLIKYASHSTSGVPSRFSGSGSGTDFTLTINGLEAEDAGTYYCHQTDSLPYTFGPGTKVDIKRTVAAPSVFIFPPSDEQLKSGTASVVCLLNNFYPREAKVQWKVDNALQSGNSQESVTEQDSKDSTYSLSSTLTLSKADYEKHKVYACEVTHQGLSSPVTKSFNRGEC
notes: human kappa; also called DVD3418H; DVD3418L
N-Terminal VD IL-1β Neutralization Assay (IC50 nM) (Recombinant Human IL-1b [3]): 0.018 nM
C-Terminal VD IL17 Neutralization Assay (IC50 nM) (Recombinant Human IL-17 [1]): 0.068 nM
Kd (Recombinant Human IL-1b [5]): 0.034 nM
koff (Recombinant Human IL-1b [5]): 1.8e-05 s⁻¹
kon (Recombinant Human IL-1b [5]): 540000 M⁻¹ s⁻¹
Kd (Recombinant Human IL-17 [6]): < 0.0048 nM
koff (Recombinant Human IL-17 [6]): < 1e-06 s⁻¹
kon (Recombinant Human IL-17 [6]): 210000 M⁻¹ s⁻¹
